Data from US20110165081A1 (published 2011).

Target: T1, recombinant soluble PSMA (rsPSMA) (human, UniProt Q04609 44-750)
T1 construct: Oligomeric state not specified for the assay; also called secreted rsPSMA; PSMAECTO
Test: Biacore SPR, mAb captured by anti-human IgG, rsPSMA in flow
Method: It is ideal for screening crude supernatants.
The entire sensor chip surface was conditioned with five injections of conditioning solution (1 M NaCl, 50 mM NaOH) and equilibrated with PBS buffer containing 0.005% polysorbate 20. Two to three thousand resonance units (RU) of biotinylated anti-human IgG antibody (Sigma) were immobilized onto the SA chip followed by an injection of regeneration buffer (glycine-HCl, pH 2.2). […] For each antibody at one concentration, the chip was regenerated and equilibrated.

T1 sequence (Q04609 44-750): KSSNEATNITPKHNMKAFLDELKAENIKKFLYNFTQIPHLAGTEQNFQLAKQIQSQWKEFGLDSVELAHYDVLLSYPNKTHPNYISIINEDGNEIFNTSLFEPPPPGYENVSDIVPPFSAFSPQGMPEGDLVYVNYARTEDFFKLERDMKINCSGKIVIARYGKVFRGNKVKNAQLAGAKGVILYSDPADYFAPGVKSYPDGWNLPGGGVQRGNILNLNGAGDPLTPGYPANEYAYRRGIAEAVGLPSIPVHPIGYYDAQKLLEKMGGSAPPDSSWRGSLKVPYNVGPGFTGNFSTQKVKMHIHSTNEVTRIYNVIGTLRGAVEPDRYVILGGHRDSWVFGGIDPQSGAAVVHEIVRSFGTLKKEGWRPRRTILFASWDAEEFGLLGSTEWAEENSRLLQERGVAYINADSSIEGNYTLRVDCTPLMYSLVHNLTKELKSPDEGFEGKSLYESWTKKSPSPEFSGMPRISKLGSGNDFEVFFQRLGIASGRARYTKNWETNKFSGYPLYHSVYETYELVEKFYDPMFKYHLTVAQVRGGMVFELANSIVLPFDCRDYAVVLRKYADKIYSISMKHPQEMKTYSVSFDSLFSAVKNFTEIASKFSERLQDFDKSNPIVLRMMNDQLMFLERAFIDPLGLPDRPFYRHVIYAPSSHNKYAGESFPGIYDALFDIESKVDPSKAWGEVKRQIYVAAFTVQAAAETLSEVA

B1: PSMA 10.3 (antibody, V domains shown)
VH: QEQLVESGGGVVQPGRSLRLSCAASGFTFSTYGMHWVRQAPGKGLEWVAVTWHDGSNKYYADSVKGRFTISRDNSKNTLYLQMNSLRAEDTAVYYCARGGVGATYYYYYGMDVWGQGTTVTVSS
VL: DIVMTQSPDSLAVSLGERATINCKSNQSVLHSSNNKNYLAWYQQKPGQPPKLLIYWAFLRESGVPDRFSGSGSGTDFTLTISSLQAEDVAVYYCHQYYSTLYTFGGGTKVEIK
Kd: 0.193 nM
